The record followed here is paper PMC7155755, “Binding of the Human 14-3-3 Isoforms to Distinct Sites in the Leucine-Rich Repeat Kinase 2” (Frontiers in Neuroscience, 2020).

“Also recorded” adds a separate entry of the source. Square brackets hold non-standard residues; d marks the D form. Ends that are not written are not given here. fluorescein = N-terminal fluorescein label; pS = N[C@@H](COP(=O)(O)O)C(=O)O

The target of one assay is T1, human 14-3-3 isoform η (Homo sapiens, UniProt Q04917).
T1 construct: MBP (cleaved yes); made in house; host or cells: E. coli BL21DE3
Description: Fluorescence polarization (FP) direct binding assay. The conditions noted are these: fluorescein-labeled peptide 1 nM. On the procedure: (§1) Human MBP-tagged 14-3-3 isoforms were expressed from pMAL2CX plasmids [[Kilisch et al. (2016)], [Yuan et al. (2003)]] in E. coli BL21DE3 cells. After induction with […] isopropyl-β-D-thiogalactoside, the protein was expressed for 4 h at room temperature. Cells were lysed in MBP-lysis buffer [50 mM Tris–HCl pH 7.5, 150 mM NaCl, 5 mM MgCl2, 1 mM PMSF, 1× cOmplete Protease Inhibitor EDTA-free (Roche)] using a French Pressure cell (FRENCH Press, Thermo, United States). Following centrifugation at 42,000 × g and 4°C for 30 min, the supernatant was transferred to a Maltose-agarose column (1.5 ml bed volume; New England Biolabs GmbH, Germany). Captured proteins were washed six times with 10 ml wash buffer (50 mM Tris–HCl pH 7.5, 150 mM NaCl, 5 mM MgCl2) prior to elution using wash buffer including 15 mM D-maltose. To remove the MBP tag, fusion proteins were incubated with Factor Xa (New England Biolabs GmbH, Germany), at a final concentration of 0.4 μg per 1 mg fusion protein for 24 h at RT following another 72 h at 4°C. Anion exchange chromatography was finally applied to separate residual MBP using a buffer gradient from 20 mM Tris pH 8 to 20 mM Tris pH 8 with 1 M NaCl. For this a RESOURCE Q column (GE Healthcare, United Kingdom) was utilized, employing an ÄKTApurifier (GE Healthcare, United Kingdom) or an NGC Quest Chromatography System (Bio-Rad Laboratories GmbH, Germany).
(§2) FP was used to determine binding affinities of different phosphorylated and non-phosphorylated peptides derived from LRRK2 sequences (Peps4LS GmbH, Germany) toward human 14-3-3 isoforms. Direct binding assays were performed and evaluated as previously described ([Muda et al., 2014]; [Manschwetus et al., 2019]). Briefly, both dilution series of 14-3-3 isoforms ranging from final concentrations of at least 5 μM down to picomolar concentrations and dilutions of the respective fluorescein-labeled peptide (final conc. 1 nM) were prepared in FP buffer (20 mM MOPS pH 7, 150 mM NaCl, 0.005% CHAPS). Subsequently, samples were mixed in 384-well microtiter plates as duplicates (BRAND plates, pureGrade, black, BRAND GmbH & Co. KG, Germany) in a 1:1 ratio and measured using a CLARIOstar plate reader (BMG LABTECH, Germany). Two protein preparations were utilized for at least two independent replications for all measurements while high affinity binding peptides were particularly measured with a minimum of three independent replications for statistical evaluation. Data was analyzed with GraphPad Prism 6.0 (GraphPad Software, San Diego, CA, United States) by plotting obtained FP signals (mPol) against the logarithmic 14-3-3 protein concentrations. Data points represent means ± standard error of mean (SEM) of duplicates. “Ctrl.” indicates the FP signal of fluorescein-labeled peptides without 14-3-3 protein. Sigmoidal dose-response fitting was performed to define KD-values.
Background: Polarisation of emitted light reports the rotation of a fluorescent probe.

A further assay has as its target T2, human 14-3-3 isoform θ (Homo sapiens, UniProt P27348).
T2 construct: MBP (cleaved yes); made in house; host or cells: E. coli BL21DE3
Described as above. The conditions noted are these: fluorescein-labeled peptide 1 nM. On the procedure:
as §1, §2

The next assay concerns the target T3, human 14-3-3 isoform σ (Homo sapiens, UniProt P31947).
T3 construct: MBP (cleaved yes); made in house; host or cells: E. coli BL21DE3
T3 sequence (P31947 1-248): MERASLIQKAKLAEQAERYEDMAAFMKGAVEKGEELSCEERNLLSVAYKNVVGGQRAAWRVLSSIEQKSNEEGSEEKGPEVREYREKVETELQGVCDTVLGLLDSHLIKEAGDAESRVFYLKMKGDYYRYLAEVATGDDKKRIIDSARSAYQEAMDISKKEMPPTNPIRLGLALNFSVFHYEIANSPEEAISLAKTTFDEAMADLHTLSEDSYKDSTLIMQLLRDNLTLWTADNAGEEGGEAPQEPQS
The assay is described as above. The conditions noted are these: fluorescein-labeled peptide 1 nM. On the procedure: as §1, §2

The target in a further assay is T4, human 14-3-3 isoform ϵ (Homo sapiens, UniProt P62258).
T4 construct: MBP (cleaved yes); made in house; host or cells: E. coli BL21DE3
T4 sequence (P62258 1-255): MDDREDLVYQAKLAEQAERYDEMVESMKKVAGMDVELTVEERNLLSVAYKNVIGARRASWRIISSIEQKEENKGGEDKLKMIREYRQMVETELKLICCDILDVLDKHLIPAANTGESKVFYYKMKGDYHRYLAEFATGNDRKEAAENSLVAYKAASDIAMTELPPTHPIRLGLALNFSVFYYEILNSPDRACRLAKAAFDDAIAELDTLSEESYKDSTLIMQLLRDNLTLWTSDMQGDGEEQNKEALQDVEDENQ
The description is as above. As to conditions: fluorescein-labeled peptide 1 nM. On the procedure:
as §1, §2

The next assay concerns the target T5, human 14-3-3γ (Homo sapiens, UniProt P61981).
T5 construct: MBP (cleaved yes); made in house; host or cells: E. coli BL21DE3
T5 sequence (P61981 1-247): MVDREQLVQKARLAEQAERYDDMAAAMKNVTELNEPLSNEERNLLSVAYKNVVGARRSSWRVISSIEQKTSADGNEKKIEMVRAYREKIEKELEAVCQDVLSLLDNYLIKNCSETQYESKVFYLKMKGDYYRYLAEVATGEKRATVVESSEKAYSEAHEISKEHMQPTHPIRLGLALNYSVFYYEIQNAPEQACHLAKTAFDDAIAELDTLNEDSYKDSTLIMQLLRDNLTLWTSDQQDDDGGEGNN
Described as above. As to conditions: dilution series of 14-3-3γ (at least 5 μM down to pM), fluorescein-labeled peptide 1 nM, FP buffer pH 7. How it is done:
as §1, §2

In assay [1] the test system is all seven human 14-3-3 isoforms. As to the kind of experiment: Fluorescence polarization (FP) direct binding assay, statements over all isoforms. The conditions noted are these: FP direct binding; all seven isoforms; fluorescein-labeled peptide 1 nM; FP buffer pH 7. How it is done:
as §1, §2

In assay [2] the target is T6, human 14-3-3 isoform β (recombinant, MBP tag removed) (human, UniProt P31946 1-246).
T6 construct: 14-3-3 beta, human; Expressed from pMAL2CX plasmids; also called 14-3-3β; source: E. coli BL21DE3, purified (maltose-agarose, Factor Xa, anion exchange)
T6 sequence (looked up): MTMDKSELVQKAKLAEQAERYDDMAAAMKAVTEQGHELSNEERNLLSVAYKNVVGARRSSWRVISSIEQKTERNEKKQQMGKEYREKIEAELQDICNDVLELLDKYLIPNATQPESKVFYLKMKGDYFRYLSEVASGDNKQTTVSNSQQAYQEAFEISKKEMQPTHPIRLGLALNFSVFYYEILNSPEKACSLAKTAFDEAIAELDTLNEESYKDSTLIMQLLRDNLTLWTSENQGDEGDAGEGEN
As to the kind of experiment: fluorescence polarisation; direct binding; dilution series of 14-3-3 isoform (at least 5 μM down to picomolar) mixed with 1 nM fluorescein-labelled peptide; 20 mM MOPS pH 7, 150 mM NaCl, 0.005% CHAPS; 384-well plates. The conditions noted are these: both partners purified.

The target of assay [3] is T7, human 14-3-3 isoform ε (recombinant, MBP tag removed) (human, UniProt P62258 1-255).
T7 construct: 14-3-3 epsilon, human; Expressed from pMAL2CX plasmids; also called 14-3-3ε; source: E. coli BL21DE3, purified (maltose-agarose, Factor Xa, anion exchange)
T7 sequence (looked up): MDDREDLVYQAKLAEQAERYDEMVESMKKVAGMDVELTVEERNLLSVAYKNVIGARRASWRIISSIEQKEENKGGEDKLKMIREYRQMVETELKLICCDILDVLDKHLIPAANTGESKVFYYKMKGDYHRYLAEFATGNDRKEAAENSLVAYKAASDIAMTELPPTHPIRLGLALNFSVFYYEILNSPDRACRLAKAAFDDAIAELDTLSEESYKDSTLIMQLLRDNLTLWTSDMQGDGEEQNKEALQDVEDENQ
The assay is described as above. As to conditions: both partners purified.

Assay [4] concerns the target T8, human 14-3-3 isoform ζ (recombinant, MBP tag removed) (human, UniProt P63104 1-245).
T8 construct: 14-3-3 zeta, human; Expressed from pMAL2CX plasmids; also called 14-3-3ζ; source: E. coli BL21DE3, purified (maltose-agarose, Factor Xa, anion exchange)
T8 sequence (looked up): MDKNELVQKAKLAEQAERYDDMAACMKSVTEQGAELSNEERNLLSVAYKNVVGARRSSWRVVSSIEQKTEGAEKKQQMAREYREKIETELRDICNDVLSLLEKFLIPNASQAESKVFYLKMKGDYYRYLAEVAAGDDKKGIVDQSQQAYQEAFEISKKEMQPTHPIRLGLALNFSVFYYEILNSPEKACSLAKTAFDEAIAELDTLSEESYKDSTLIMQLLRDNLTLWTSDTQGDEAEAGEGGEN
The assay is described as above. As to conditions: both partners purified.

In assay [5] the target is T9, human 14-3-3 isoform η (recombinant, MBP tag removed) (human, UniProt Q04917 1-246).
T9 construct: 14-3-3 eta, human; Expressed from pMAL2CX plasmids; also called 14-3-3η; source: E. coli BL21DE3, purified (maltose-agarose, Factor Xa, anion exchange)
T9 sequence (looked up): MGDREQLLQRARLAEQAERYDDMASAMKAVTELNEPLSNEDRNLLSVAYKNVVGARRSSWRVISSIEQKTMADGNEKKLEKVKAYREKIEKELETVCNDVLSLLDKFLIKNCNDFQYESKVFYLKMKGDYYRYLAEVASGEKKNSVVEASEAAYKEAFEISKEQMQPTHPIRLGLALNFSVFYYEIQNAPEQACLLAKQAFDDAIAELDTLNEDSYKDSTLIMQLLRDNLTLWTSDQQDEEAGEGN
The description is as above. The conditions noted are these: both partners purified.

The target in assay [6] is T10, human 14-3-3 isoform θ (recombinant, MBP tag removed) (human, UniProt P27348 1-245).
T10 construct: 14-3-3 theta, human; Expressed from pMAL2CX plasmids; also called 14-3-3θ; source: E. coli BL21DE3, purified (maltose-agarose, Factor Xa, anion exchange)
T10 sequence (looked up): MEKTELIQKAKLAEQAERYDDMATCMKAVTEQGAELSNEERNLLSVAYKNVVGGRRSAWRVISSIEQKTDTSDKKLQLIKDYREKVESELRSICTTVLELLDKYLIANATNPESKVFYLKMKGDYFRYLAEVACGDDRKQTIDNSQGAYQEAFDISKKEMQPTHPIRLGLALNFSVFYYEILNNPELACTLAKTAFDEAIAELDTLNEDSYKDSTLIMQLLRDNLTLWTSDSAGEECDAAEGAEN
The assay is described as above. The conditions noted are these: both partners purified.

The target of assay [7] is T11, human 14-3-3 isoform σ (recombinant, MBP tag removed) (human, UniProt P31947 1-248).
T11 construct: 14-3-3 sigma, human; Expressed from pMAL2CX plasmids; also called 14-3-3σ; source: E. coli BL21DE3, purified (maltose-agarose, Factor Xa, anion exchange)
T11 sequence (looked up): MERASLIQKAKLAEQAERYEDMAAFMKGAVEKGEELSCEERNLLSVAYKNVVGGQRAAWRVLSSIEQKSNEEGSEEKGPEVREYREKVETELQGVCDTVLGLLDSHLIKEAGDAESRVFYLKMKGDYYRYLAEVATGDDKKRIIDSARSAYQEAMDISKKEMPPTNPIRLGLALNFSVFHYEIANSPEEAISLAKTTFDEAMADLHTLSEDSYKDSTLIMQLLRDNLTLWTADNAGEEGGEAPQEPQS
The description is as above. As to conditions: both partners purified.

Regarding “SFLVKKKSNpSISVGEFYRD [pS910, fluorescein-labeled LRRK2-derived phosphopeptide covering pS910]”, the “Binding to 14-3-3 isoform η, in words” value at human 14-3-3 isoform η is recorded as “highest affinities, yet in a micromolar range”. At human 14-3-3 isoform θ, the “Binding to 14-3-3 isoform θ, in words” value was “weakest binding”. In addition, the “Binding to 14-3-3 isoform σ, in words” value on human 14-3-3 isoform σ is “No binding”. In addition, the “Binding to 14-3-3 isoform ϵ, in words” value on human 14-3-3 isoform ϵ is “No binding”. Also, the “Binding to 14-3-3γ, in words” value at human 14-3-3γ was “micromolar binding affinity; also recorded: highest affinities, yet in a micromolar range”. For the same molecule, in assay [1], the “Binding to the human 14-3-3 isoforms, in words” value was “micromolar affinities for the 14-3-3 isoforms except σ and ϵ; also recorded: low affinity”.

B1: Q930R/pS935 (peptide)
peptide: fluorescein-RCSPNLRRHSN[pS]LGPIFDH
notes: LRRK2-derived peptide with the possible pathogenic mutation Q930R, phosphorylated at S935; source: synthetic peptide (Peps4LS GmbH)
What is called Kd is the free concentration of one partner at which half of the binding sites on the other are occupied at equilibrium, for simple one-to-one binding. Regarding B1, the Kd is 29.5 nM in assay [2]; 48.5 nM in assay [3]; 23.9 nM in assay [4]; 13.3 nM in assay [5]; 73.1 nM in assay [6]; 350 nM in assay [7].

B2: pS910/pS935 (peptide)
peptide: fluorescein-KKSN[pS]ISVGEFYRDAVLQRCSPNLQRHSN[pS]LGPIF
notes: LRRK2-derived 35-mer covering S910 and S935, phosphorylated at both; source: synthetic peptide (Peps4LS GmbH)
With B2, the Kd stood at 21.1 nM in assay [2]; 12.4 nM in assay [3]; 4.8 nM in assay [4]; 4.8 nM in [5]; 9.5 nM in [6]; 60.6 nM in assay [7].
